Measurements reported in PMC6238601, “Specificity for deubiquitination of monoubiquitinated FANCD2 is driven by the N-terminus of USP1” (Life Science Alliance, 2018).

How the values were obtained:
[1] = target: T1, human PCNA-K164Ub (hsPCNA-Ub) (human | , UniProt P12004 1-261; P0CG48 1-76, K164 monoubiquitinated (isopeptide bond to ubiquitin) | C-terminus linked to K164 of PCNA); assay: pull-down; N-terminal Strep-tagged UAF1 complexed with E. coli USP1, 10 μg bound to MagStrep beads and washed; 10 μg recombinant substrate, 1 h on ice; 50 mM Tris pH 7.5, 120 mM NaCl, 5% glycerol, 1 mM DTT, 0.01% Triton X-100, 0.01% ovalbumin; SDS-PAGE; beads without USP1–UAF1 as control; details: both partners purified
T1 construct: PCNA, human; ubiquitin; Covalent conjugate; also called monoubiquitinated PCNA

[2] = target: T2, UAF1 with an N-terminal Strep tag (human, UniProt Q8TAF3 1-677); assay: as above; details: both partners purified
T2 construct: UAF1 (USP1-associated factor 1), human; Strep11 tag and linker GGSGGS were added N-terminal of the His-3C tag; as the Strep tag is used for capture, the His-3C stretch was probably kept too (surmise); also called Strep-tagged UAF1; N-terminal Strep-tagged UAF1; source: Sf21 (baculovirus), purified; not shown: Strep11, N-terminal, kept

| Binder | binding result [1] | binding result [2] |
| --- | --- | --- |
| USP1^Δ1Δ2–UAF1 complex (Strep-tagged UAF1) (complex, USP1, human; Δ229–408, Δ608–737; as m8; UAF1, human; as m7; Bait complex formed beforehand and held on MagStrep beads; also called UAF1–USP1; USP1–UAF1; source: E. coli USP1^Δ1Δ2 complexed with Sf21 Strep-UAF1, both purified; not shown: Strep11, N-terminal, kept) chain 1: MPGVIPSESNGLSRGSPSKKNRLSLKFFQKKETKRALDFTDSQENEEKASEYRASEIDQVVPAAQSSPINCEKRENLLPFVGLNNLGNTCYLNSILQVLYFCPGFKSGVKHLFNIISRKKEALKDEANQKDKGNCKEDSLASYELICSLQSLIISVEQLQASFLLNPEKYTDELATQPRRLLNTLRELNPMYEGYLQHDAQEVLQCILGNIQETCQLLKKEEVKNVAENEVKPINKGEEQIGFELVEKLFQGQLVLRTRCLECESLTERREDFQDISVPVQEDELSKVEESSEISPEPKTEMKTLRWAISQFASVERIVGEDKYFCENCHHYTEAERSLLFDKMPEVITIHLKCFAASGLEFDCYGGGLSKINTPLLTPLKLSLEEWSTKPTNDSYGLFAVVMHSGITISSGHYTASVKVTDLNSLEQSLKEYEGKWLLFDDSEVKVTEEKDFLNSLSPSTSPTSTPYLLFYKKL chain 2: not shown | binds | – |
| USP1^Δ1Δ2 (Δ229–408, Δ608–737), E. coli-expressed (enzyme, human, UniProt O94782 1-785, looked up, USP1, human; Insertion 1 (Δ229–408) and Insertion 2 (Δ608–737) deleted; gene synthesised and optimised for E. coli; GST-3C tag from pGEX6P; a few residues of the 3C site may be left after cleavage (surmise); also called E. coli–expressed USP1^Δ1Δ2; source: E. coli BL21, purified (GSH resin, SEC)) MPGVIPSESNGLSRGSPSKKNRLSLKFFQKKETKRALDFTDSQENEEKASEYRASEIDQVVPAAQSSPINCEKRENLLPFVGLNNLGNTCYLNSILQVLYFCPGFKSGVKHLFNIISRKKEALKDEANQKDKGNCKEDSLASYELICSLQSLIISVEQLQASFLLNPEKYTDELATQPRRLLNTLRELNPMYEGYLQHDAQEVLQCILGNIQETCQLLKKEEVKNVAENEVKPINKGEEQIGFELVEKLFQGQLVLRTRCLECESLTERREDFQDISVPVQEDELSKVEESSEISPEPKTEMKTLRWAISQFASVERIVGEDKYFCENCHHYTEAERSLLFDKMPEVITIHLKCFAASGLEFDCYGGGLSKINTPLLTPLKLSLEEWSTKPTNDSYGLFAVVMHSGITISSGHYTASVKVTDLNSLEQSLKEYEGKWLLFDDSEVKVTEEKDFLNSLSPSTSPTSTPYLLFYKKL | – | binds |
| USP1^Δ1Δ2-R22K, E. coli-expressed (enzyme, human, UniProt O94782 1-785, looked up, USP1, human; Δ229–408, Δ608–737, R22K; source: E. coli BL21, purified (GSH resin, SEC)) MPGVIPSESNGLSRGSPSKKNKLSLKFFQKKETKRALDFTDSQENEEKASEYRASEIDQVVPAAQSSPINCEKRENLLPFVGLNNLGNTCYLNSILQVLYFCPGFKSGVKHLFNIISRKKEALKDEANQKDKGNCKEDSLASYELICSLQSLIISVEQLQASFLLNPEKYTDELATQPRRLLNTLRELNPMYEGYLQHDAQEVLQCILGNIQETCQLLKKEEVKNVAENEVKPINKGEEQIGFELVEKLFQGQLVLRTRCLECESLTERREDFQDISVPVQEDELSKVEESSEISPEPKTEMKTLRWAISQFASVERIVGEDKYFCENCHHYTEAERSLLFDKMPEVITIHLKCFAASGLEFDCYGGGLSKINTPLLTPLKLSLEEWSTKPTNDSYGLFAVVMHSGITISSGHYTASVKVTDLNSLEQSLKEYEGKWLLFDDSEVKVTEEKDFLNSLSPSTSPTSTPYLLFYKKL | – | binds |
| USP1^Δ1Δ2-R22A, E. coli-expressed (enzyme, human, UniProt O94782 1-785, looked up, USP1, human; Δ229–408, Δ608–737, R22A; source: E. coli BL21, purified (GSH resin, SEC)) MPGVIPSESNGLSRGSPSKKNALSLKFFQKKETKRALDFTDSQENEEKASEYRASEIDQVVPAAQSSPINCEKRENLLPFVGLNNLGNTCYLNSILQVLYFCPGFKSGVKHLFNIISRKKEALKDEANQKDKGNCKEDSLASYELICSLQSLIISVEQLQASFLLNPEKYTDELATQPRRLLNTLRELNPMYEGYLQHDAQEVLQCILGNIQETCQLLKKEEVKNVAENEVKPINKGEEQIGFELVEKLFQGQLVLRTRCLECESLTERREDFQDISVPVQEDELSKVEESSEISPEPKTEMKTLRWAISQFASVERIVGEDKYFCENCHHYTEAERSLLFDKMPEVITIHLKCFAASGLEFDCYGGGLSKINTPLLTPLKLSLEEWSTKPTNDSYGLFAVVMHSGITISSGHYTASVKVTDLNSLEQSLKEYEGKWLLFDDSEVKVTEEKDFLNSLSPSTSPTSTPYLLFYKKL | – | binds |
| USP1^Δ1Δ2-L25A, E. coli-expressed (enzyme, human, UniProt O94782 1-785, looked up, USP1, human; Δ229–408, Δ608–737, L25A (one of the alanine point mutants of the N-terminus); source: E. coli BL21, purified (GSH resin, SEC)) MPGVIPSESNGLSRGSPSKKNRLSAKFFQKKETKRALDFTDSQENEEKASEYRASEIDQVVPAAQSSPINCEKRENLLPFVGLNNLGNTCYLNSILQVLYFCPGFKSGVKHLFNIISRKKEALKDEANQKDKGNCKEDSLASYELICSLQSLIISVEQLQASFLLNPEKYTDELATQPRRLLNTLRELNPMYEGYLQHDAQEVLQCILGNIQETCQLLKKEEVKNVAENEVKPINKGEEQIGFELVEKLFQGQLVLRTRCLECESLTERREDFQDISVPVQEDELSKVEESSEISPEPKTEMKTLRWAISQFASVERIVGEDKYFCENCHHYTEAERSLLFDKMPEVITIHLKCFAASGLEFDCYGGGLSKINTPLLTPLKLSLEEWSTKPTNDSYGLFAVVMHSGITISSGHYTASVKVTDLNSLEQSLKEYEGKWLLFDDSEVKVTEEKDFLNSLSPSTSPTSTPYLLFYKKL | – | binds |
